Source: patent US20140114054A1 (UNIVERSITY OF MIYAZAKI, published 2014)

Target: human TfR on TfR-expressing cells (human, UniProt P02786 1-760)
Assay: cell-based or functional assay

Sequence of human TfR on TfR-expressing cells (P02786 whole entry): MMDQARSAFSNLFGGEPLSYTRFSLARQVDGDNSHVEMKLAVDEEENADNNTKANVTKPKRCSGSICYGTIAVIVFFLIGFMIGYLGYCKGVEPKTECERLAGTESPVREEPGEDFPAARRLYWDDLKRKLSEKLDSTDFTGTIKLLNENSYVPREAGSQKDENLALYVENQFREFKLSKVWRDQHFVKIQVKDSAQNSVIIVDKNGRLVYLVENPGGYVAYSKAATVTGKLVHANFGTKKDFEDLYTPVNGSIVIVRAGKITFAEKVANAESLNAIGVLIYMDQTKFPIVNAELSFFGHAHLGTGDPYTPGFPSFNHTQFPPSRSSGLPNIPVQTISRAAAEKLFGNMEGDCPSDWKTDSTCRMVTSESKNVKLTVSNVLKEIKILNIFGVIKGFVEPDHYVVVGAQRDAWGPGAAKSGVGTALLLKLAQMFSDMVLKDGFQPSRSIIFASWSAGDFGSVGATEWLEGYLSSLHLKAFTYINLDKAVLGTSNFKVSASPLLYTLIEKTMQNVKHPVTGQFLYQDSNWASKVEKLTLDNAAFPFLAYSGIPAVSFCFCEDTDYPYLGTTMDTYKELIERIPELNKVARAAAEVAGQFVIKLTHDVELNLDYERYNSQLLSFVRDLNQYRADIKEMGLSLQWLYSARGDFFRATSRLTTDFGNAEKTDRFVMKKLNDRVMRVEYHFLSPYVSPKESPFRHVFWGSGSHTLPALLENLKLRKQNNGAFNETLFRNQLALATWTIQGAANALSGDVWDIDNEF

B1: TfR006 IgG antibody (antibody, V domains shown)
VH: QVQLVQSGGGVVQPGRSLRLSCAASGFPFKSYGMHWVRQAPGKGLEWVAVISFDGSSKYYADSVKGRFTISRDNSKNTLYLQMNSLRGEDTAVYYCARDSNFWSGYYSPVDVWGQGTTVTVSS
VL: NFMLTQPHSVSESPGKTVTISCTRSSGSIASNSVQWYQQRPGSAPITVIYEDTQRPSGVPDRFSGSIDSSSNSASLTISGLQTEDEADYYCQSYDSAYHWVFGGGTKLAVL
IC50 (ng/ml) of cell growth, A431: 36 ng/mL
IC50 (ng/ml) of cell growth, A549: 41 ng/mL
IC50 (ng/ml) of cell growth, BFTC905: 44 ng/mL
IC50 (ng/ml) of cell growth, DU145: 33 ng/mL
IC50 (ng/ml) of cell growth, HT29: 25 ng/mL
IC50 (ng/ml) of cell growth, K562: 50 ng/mL
IC50 (ng/ml) of cell growth, KLM1: 30 ng/mL
IC50 (ng/ml) of cell growth, MIAPaCa-2: 55 ng/mL
IC50 (ng/ml) of cell growth, MKN45: 26 ng/mL
IC50 (ng/ml) of cell growth, MT-2: 71 ng/mL
IC50 (ng/ml) of cell growth, NCI-H358: 37 ng/mL
IC50 (ng/ml) of cell growth, NCI-H1373: 127 ng/mL
IC50 (ng/ml) of cell growth, PK45-P: 100 ng/mL
IC50 (ng/ml) of cell growth, RAMOS: 8 ng/mL
